Results reported in article PMC2885824.

Target: human alpha-thrombin (Homo sapiens, UniProt P00734;P00734 328-363;364-622)
Assay: competition

B1: 15nt anti-thrombin DNA aptamer (structured_DNA)
DNA: GGTTGGTGTGGTTGG
B1: binds.
